# Reference: patent US9873733B2, “Anti-staphylococcal antibodies” (priority 2012, dated 2018)
# B1: M-C4.1: human IgG1 against cyclic peptide, loop 4 of MprF; VH1A kappa 1; VL Seq. ID: 44, VH Seq. ID: 45 (antibody, V domains shown)
# VH: QVQLVQSGAEVKKPGSSVKVSCKASGGTFNSYAISWVRQAPGQGLEWMGGIIPIFGMATYAQKFQGRVTITADESTSTAYMELSSLRSEDTAVYYCARSLFGRAYWGQGTLVTVSS
# VL: DIQMTQSPSSLSASVGDRVTITCRASQSISSFLAWYQQKPGKAPKLLIYDASSLQSGVPSRFSGSGSGTDFTLTISSLQPEDFATYYCLQADSTSYTFGQGTKVEIKRT
# modifications: MC41 VH; MC41 VL
# notes: human IgG1 against cyclic peptide, loop 4 of MprF; VH1A kappa 1; ID: 45
# Key:
# [1] = molecular target: cyclic peptide representing loop 4 of MprF (Staphylococcus aureus, UniProt Q2G2M2); conditions: IgG in PBS; biotinylated cyclic peptide 5 μg/ml
# Protocol: The IgGs were tested for binding to the antigen, which was used in their selection. Also binding to other MprF-peptides was tested to check for selectivity.
# For ELISAs with cyclic antigen, the biotinylated cyclic peptides (final conc. 5 μg/ml) were incubated with IgGs in PBS. Then the mix was transferred to a pre-blocked Neutravidin plate (Thermo Scientific), incubated and then the plate was washed with PBS containing 0.5% of TWEEN20. MprF-specific IgGs were detected using goat-anti-human IgG (Sigma).
# In both cases washing was performed using PBST ([…] with 0.05% TWEEN20. Detection was performed using alkaline phosphatase coupled Goat anti-human IgG (Sigma Cat. # A-8542 and Attophos™ substrate Roche, Cat. #11681982001). Fluorescence was measured at an excitation of 440±25 nm and an emission of 550±35 nm. Full signal intensity is typically reached after 5-15 min at room temperature.
# [2] = tested on: Staphylococcus aureus clinical isolate 703; test: Killing of clinical isolate 703 by daptomycin; assay type: cell-based; conditions: 11 μg/ml daptomycin; anti-lysozyme antibody as control
# Protocol: (§1) Overnight cultures of S. aureus SA113 Δspa were diluted in fresh MHB medium and adjusted to OD600 0.25 (˜1.5×10^7 cells). Antibodies were adjusted to a concentration of 1 mg/ml and 10 μl were applied per well of a 96 well plate and diluted in 90 μl of the adjusted cell suspension (final antibody concentration: 100 μg/ml). Cells were grown in the presence of anti-lysozyme antibody (control) or with the anti-MprF antibodies. Duplicates were employed for each assay. After 3 hours of incubation under shaking conditions at 37° C., optical density was determined, adjusted to OD600 0.025 in 500 μl ice cold PBS buffer. 80 μl of the adjusted cell suspension were diluted with 20 μl of antimicrobial substances to final concentrations of 22.5 μg/ml nisin. After incubation for 2 hours under shaking conditions at 37° C., the cell suspensions were diluted 1:2000 and 100 μl of each duplicate was plated in triplicates on TSB medium containing agar plates to obtain a representative value of bacterial survival. Cells treated without antimicrobial substance were set at 100% and survival values were calculated with cells treated with antimicrobial substances. At least three independent assays were employed.
# In this experiment killing of Staphylococcus aureus clinical isolate 703 (described in Jones et al., AAC 2008) by daptomycin in the presence of an MprF specific antibody was analyzed. […]
# S. aureus SA113 Δspa [3] = test: Killing of S. aureus by LL-37 with MprF antibodies; assay type: cell-based, Staphylococcus aureus; conditions: antibody 100 μg/ml, 45.0 μg/ml LL-37; anti-lysozyme antibody as control
# Protocol: as §1
# The previous experiment was repeated, but instead of nisin LL-37 is used. […]
# [4] = tested on: S. aureus SA113 Δspa (flippase reaction of MprF); test: Cytochrome C repulsion assay; assay type: cell-based, Staphylococcus aureus; conditions: pre-incubation 3 hours, compared to anti-lysozyme antibodies
# Protocol: The repulsion of positively charged cytochrome C has been repeatedly employed to investigate charge dependent cell surface modifications in bacteria, including the flippase reaction of MprF, which leads to increased positively charged lipids in the outer leaflet of the membrane and to increased repulsion of cytochrome C (Ernst et al., PLoS Pathogens 2009). Briefly, cells were grown in the presence of M-C4.1 or anti-lysozyme for 3 hours, followed by incubation with cytochrome C for 15 minutes and measurement of optical density of the supernatant in order to determine repulsion of positively charged cytochrome C. The established cytochrome C repulsion assay was scaled down to accommodate for the reduced amount of bacteria employed in the killing-assays.
# [5] = tested on: MprF on S. aureus (Protein A deletion mutant, delta spa); test: Whole cell ELISA on S. aureus; assay type: binding, Staphylococcus aureus; conditions: E. coli as negative control
# Protocol: (§2) The specificity of the purified antibodies was tested for binding to whole cell Staphylococcus aureus in an ELISA assay. Escherichia coli bacteria were used as a negative control.
# (§3) For ELISA on S. aureus the Protein A deletion mutant (delta spa) or the mutant with an additional deletion in MprF (delta spa delta mprf) were grown to mid log phase, than washed in PBS and resuspended in saline to a final OD600 of 0.6. This bacterial culture was coated on Maxisorp plates (Nunc). Plates were blocked with 2% BSA/PBS and washed with TSB containing 0.5% TWEEN20.
# S. aureus SA113 Δspa [6] = test: Killing of S. aureus by nisin with MprF antibodies; assay type: cell-based, Staphylococcus aureus; conditions: antibody 100 μg/ml, 22.5 μg/ml nisin, 2 hours; anti-lysozyme antibody as control
# Protocol: In this experiment killing of Staphylococcus aureus was tested. Nisin was used as an exemplary cationic antimicrobial compound. Nisin was tested in combination with selected antibodies of the present invention. An anti-lysozyme antibody was used as a negative control.
# as §1
# [7] = tested on: S. aureus SA113 Δspa (MprF-mediated flipping of lysyl-phosphatidylglycerol); test: Annexin V assay; assay type: cell-based, Staphylococcus aureus; conditions: flow cytometry; anti-lysozyme pre-treated cells set at 100%
# Protocol: Annexin V binds preferentially to negatively charged phospholipids and is therefore a useful tool for measuring the relative content of MprF-mediated flipping of lysyl-phosphatidylglycerol, as translocation leads to reduced accessibility of negatively charged phospholipids in the outer leaflet of the membrane and therefore to reduced binding of annexin V. Cells (S. aureus SA113 Δspa) were grown in the presence of M-C4.1 or anti-lysozyme antibody and then treated with annexin V for 15 minutes before being analyzed by flow cytometry for surface-bound fluorophore (FL-4 channel). Data are expressed in relative fluorescence units and compared to cells pre-treated with anti-lysoyzme set at 100% fluorescence.
# [8] = tested on: S. aureus mutants lacking MprF expression (delta spa delta mprF); test: Whole cell ELISA on S. aureus mutant lacking MprF; assay type: binding, Staphylococcus aureus; conditions: compared with delta spa
# Protocol: as §2, §3
# S. aureus SA113 Δspa [9] = test: Killing of S. aureus by daptomycin with MprF antibodies; assay type: cell-based, Staphylococcus aureus; conditions: antibody 100 μg/ml, 12.5 μg/ml Daptomycin; anti-lysozyme antibody as control
# Protocol: as §1
# The previous experiment was repeated, but instead of nisin, daptomycin is used. […]
molecule,measurement,setting,value
B1,Specific binding to cyclic loop 4 peptide (ELISA),[1],specifically bind to cyclic loop 4 peptide in a dose-dependent manner
same,Susceptibility of S. aureus 703 to daptomycin (killing) with MprF antibody,[2],restored susceptibility of S. aureus 703 bacteria to daptomycin
same,Sensitivity of S. aureus towards LL-37 (killing),S. aureus SA113 Δspa [3],increased the sensitivity of Staphylococcus aureus towards LL-37
same,Decreased repulsion of cytochrome C,[4],40%
same,Binding to whole cell S. aureus (ELISA),[5],detect MprF on S. aureus
same,"Sensitivity of S. aureus towards nisin (killing, bacterial survival)",S. aureus SA113 Δspa [6],most pronounced effects
same,Increased binding of annexin V,[7],70%
same,Binding to S. aureus mutants lacking MprF expression (ELISA),[8],significantly weaker binding
same,Sensitivity of S. aureus towards daptomycin (killing),S. aureus SA113 Δspa [9],increased the sensitivity of Staphylococcus aureus towards daptomycin
